Reference: patent US10864252B2, “Anti-SSX-2 T cell receptors and related materials and methods of use” (The United States of America, as represented by the …, priority 2010, dated 2020)

B1: SSX2-TCR-MCR: codon-optimized human/mouse chimeric anti-SSX-2 TCR with mouse constant region, encoded by SEQ ID NO: 30, tested as transduced human PBLs (protein)
chain: MALSSLLKVVTASLWLGPGIAQKITQTQPGMFVQEKEAVTLDCTYDTSDPSYGLFWYKQPSSGEMIFLIYQGSYDQQNATEGRYSLNFQKARKSANLVISASQLGDSAMYFCAMTSGFGNEKLTFGTGTRLTIIPNDIQNPEPAVYQLKDPRSQDSTLCLFTDFDSQINVPKTMESGTFITDKTVLDMKAMDSKSNGAIAWSNQTSFTCQDIFKETNATYPSSDVPCDATLTEKSFETDMNLNFQNLSVMGLRILLLKVAGFNLLMTLRLWSSRAKRSGSGATNFSLLKQAGDVEENPGPMGPGLLHWMALCLLGTGHGDAMVIQNPRYQVTQFGKPVTLSCSQTLNHNVMYWYQQKSSQAPKLLFHYYDKDFNNEADTPDNFQSRRPNTSFCFLDIRSPGLGDAAMYLCATSRGQGGQPQHFGDGTRLSILEDLRNVTPPKVSLFEPSKAEIANKQKATLVCLARGFFPDHVELSWWVNGKEVHSGVSTDPQAYKESNYSYCLSSRLRVSATFWHNPRNHFRCQVQFHGLSEEDKWPEGSPKPVTQNISAEAWGRACGITSSYQQGVLSATILYEILLGKATLYAVLVSTLVVMAMVKRKNS
B2: SSX2-TCR-Co Op: codon-optimized anti-SSX-2 TCR alpha and beta chains encoded by SEQ ID NO: 29, tested as transduced human PBLs (protein)
chain: MALSSLLKVVTASLWLGPGIAQKITQTQPGMFVQEKEAVTLDCTYDTSDPSYGLFWYKQPSSGEMIFLIYQGSYDQQNATEGRYSLNFQKARKSANLVISASQLGDSAMYFCAMTSGFGNEKLTFGTGTRLTIIPNIQNPDPAVYQLRDSKSSDKSVCLFTDFDSQTNVSQSKDSDVYITDKTVLDMRSMDFKSNSAVAWSNKSDFACANAFNNSIIPEDTFFPSPESSCDVKLVEKSFETDTNLNFQNLSVIGFRILLLKVAGFNLLMTLRLWSSRAKRSGSGATNFSLLKQAGDVEENPGPMGPGLLHWMALCLLGTGHGDAMVIQNPRYQVTQFGKPVTLSCSQTLNHNVMYWYQQKSSQAPKLLFHYYDKDFNNEADTPDNFQSRRPNTSFCFLDIRSPGLGDAAMYLCATSRGQGGQPQHFGDGTRLSILEDLNKVFPPEVAVFEPSEAEISHTQKATLVCLATGFFPDHVELSWWVNGKEVHSGVSTDPQPLKEQPALNDSRYCLSSRLRVSATFWQNPRNHFRCQVQFYGLSENDEWTQDRAKPVTQIVSAEAWGRADCGFTSVSYQQGVLSATILYEILLGKATLYAVLVSALVLMAMVKRKDF

Key:
[1] = tested on: mel1300 cells; test: IFN-γ release, SSX-2 TCR PBL co-cultured with mel1300 cells with DAC; assay type: cell-based; details: 0.1 μM or 1.0 μWI DAC; PBLs from three donors; FIG. 12
Method: SSX-2 TCR-transduced PBLs from three donors were co-cultured with mel1300 cells without DAC or with 0.1 μM or 1.0 μWI DAC.

[2] = tested on: 938-A2 mel; test: IFN-γ release, co-culture with 938-A2 melanoma; assay type: cell-based; details: co-cultured with 938-A2 mel
Description: (§1) SSX-2 TCR-transduced PBLs were co-cultured with various tumor cell lines. […] FIGS. 4A and 4B, FIG. 11, and Tables 3 and 4 show additional results of PBLs from human donors that were transduced with the SSX-2 TCR of Example 2 when these PBLs were co-cultured with various tumor cells. PBLs that were untransduced (UT) or transduced with a vector comprising SEQ ID NO: 27 (SSX-2 TCR), SEQ ID NO: 29 (codon-optimized SSX-2 TCR), or SEQ ID NO: 30 (codon-optimized SSX-2 TCR including mouse constant region) were co-cultured with various tumor cell lines. Tables 5 and 6 show the resulting interferon-γ levels (pg/ml) measured with respect to PBL from two different donors.

[3] = tested on: COS-A2; test: IFN-γ release, TCR-transduced PBL co-cultured with COS-A2; assay type: cell-based; details: co-cultured with Cos-A2
Description: as §1

[4] = tested on: SK MEL37; test: IFN-γ release, co-culture with SK MEL37 melanoma; assay type: cell-based
Description: as §1

[5] = tested on: K562-A2-Erythroleukemia; test: IFN-γ release, co-culture with K562-A2 erythroleukemia; assay type: cell-based; details: co-cultured with K562-A2-Erythroleukemia
Description: (§2) PBLs that were untransduced (UT) or transduced with a vector comprising SEQ ID NO: 27 (SSX-2 TCR), SEQ ID NO: 29 (codon-optimized SSX-2 TCR), or SEQ ID NO: 30 (codon-optimized SSX-2 TCR including mouse constant region) were co-cultured with various tumor cell lines. Tables 5 and 6 show the resulting interferon-γ levels (pg/ml) measured with respect to PBL from two different donors.

[6] = tested on: SSX2+/HLA-A2+ target cells; test: Proliferation ([3H]-thymidine) on co-culture with tumor cells; assay type: cell-based; details: 1300 mel, 624 mel, 888 mel, SK mel 37 or COS-A2-SSX-2 cells; FIGS. 9A-9E
Description: In another experiment, PBLs transduced as described in this example were co-cultured with 1300 mel cells, 624 mel cells, 888 mel cells, SK mel 37 cells, or COS-A2-SSX-2 cells.

[7] = tested on: 624 mel; test: IFN-γ release, co-culture with 624 melanoma; assay type: cell-based; details: co-cultured with 624 mel
Description: as §1

[8] = tested on: T331A mel; test: IFN-γ release, co-culture with T331A; assay type: cell-based; details: co-cultured with T331A mel
Description: as §1

[9] = tested on: 293-A2 SSX2; test: IFN-γ release, co-culture with 293-A2 SSX2; assay type: cell-based; details: co-cultured with 293-A2-SSX2
Description: as §1

[10] = tested on: SKOV3 Ovarian; test: IFN-γ release, co-culture with SKOV3 ovarian; assay type: cell-based; details: co-cultured with SKOV3 Ovarian
Description: as §1

[11] = tested on: K562; test: IFN-γ release, co-culture with K562; assay type: cell-based; details: co-cultured with K562
Description: as §2

[12] = tested on: Lau 149 mel; test: IFN-γ release, co-culture with Lau 149 mel; assay type: cell-based; details: co-cultured with Lau 149 mel
Description: as §2

[13] = tested on: 293-A2; test: IFN-γ release, co-culture with 293-A2; assay type: cell-based; details: co-cultured with 293-A2
Description: as §1

[14] = tested on: 1300 mel; test: IFN-γ release, co-culture with 1300 mel; assay type: cell-based; details: co-cultured with 1300 mel
Description: as §2

[15] = tested on: U251 Glioma; test: IFN-γ release, co-culture with U251 glioma; assay type: cell-based; details: co-cultured with U251 Glioma
Description: as §1

[16] = tested on: COS-A2-SSX-2 cells; test: Proliferation ([3H]-thymidine) on co-culture with COS-A2-SSX-2 cells; assay type: cell-based; details: PBL from Donor 1 or Donor 2; FIGS. 6A, 6B
Method: PBLs from Donor 1 or Donor 2 that were untransduced (UT) or transduced with a vector comprising SEQ ID NO: 27 (SSX-2 TCR), SEQ ID NO: 29 (codon-optimized SSX-2 TCR), or SEQ ID NO: 30 (codon-optimized SSX-2 TCR including mouse constant region) were co-cultured with COS-A2-SSX-2 cells. Proliferation in terms of [^3H]-thymidine incorporation (CPM) was measured and is shown in FIG. 6A (Donor 1) and 6B (Donor 2).

[17] = IFN-γ release, transduced PBL without target cells (medium / T cell alone); assay type: cell-based, human; details: T cell alone
Description: as §1

[18] = tested on: COS-A2 SSX2; test: IFN-γ release, co-culture with COS-A2 SSX2; assay type: cell-based; details: co-cultured with COS-A2-SSX2
Description: as §1

[19] = tested on: 938 mel; test: IFN-γ release, co-culture with 938; assay type: cell-based; details: co-cultured with 938 mel
Description: as §1

[20] = tested on: COS-A2-SSX2 cells; test: CD137 (4-1BB) upregulation after co-culture with COS-A2-SSX2 cells; assay type: cell-based; details: FACS after co-culture with COS-A2-SSX2 cells
[21] = tested on: SSX-2+/HLA-A2+ target cells; test: Percent lysis of target cells; assay type: cell-based; details: FIGS. 7A-D and 8A-D, various E:T ratios
[22] = Table 5 donor, co-cultured with Skmel 37 mel
[23] = Table 6 donor, co-cultured with Skmel 37

Molecule	interferon-γ levels ([2]; Table 5 donor)	interferon-γ levels ([2]; Table 6 donor)	interferon-γ levels ([3]; Table 5 donor)	interferon-γ levels ([3]; Table 6 donor)	interferon-γ levels [4, 22]	interferon-γ levels [4, 23]	interferon-γ levels ([5]; Table 5 donor)	interferon-γ levels ([5]; Table 6 donor)	proliferation ([3H]-thymidine incorporation) [6]	interferon-γ levels ([7]; Table 5 donor)	interferon-γ levels ([7]; Table 6 donor)	interferon-γ levels ([8]; Table 5 donor)	interferon-γ levels ([8]; Table 6 donor)	interferon-γ levels ([9]; Table 5 donor)	interferon-γ levels ([9]; Table 6 donor)	interferon-γ levels ([10]; Table 5 donor)	interferon-γ levels ([10]; Table 6 donor)	interferon-γ levels ([11]; Table 5 donor)	interferon-γ levels ([11]; Table 6 donor)	interferon-γ levels ([12]; Table 5 donor)	further results
Nc1ncn([C@H]2C[C@H](O)[C@@H](CO)O2)c(=O)n1 [DAC, 5-aza-2′-deoxycytidine]																					effect on recognition of mel1300 cells (IFN-γ) [1]: enhances the recognition of mel1300 cells by SSX2-TCR engineered PBL
B1	51092 pg/mL	40047 pg/mL	2827 pg/mL	553 pg/mL	10401 pg/mL	10630 pg/mL	17437 pg/mL	13555 pg/mL	proliferate in response to co-culture with SSX2+/HLA-A2+ target cells	46999 pg/mL	57693 pg/mL	30 pg/mL	38 pg/mL	37258 pg/mL	47273 pg/mL	2221 pg/mL	9857 pg/mL	2752 pg/mL	3328 pg/mL	270 pg/mL	interferon-γ levels ([12]; Table 6 donor): 142 pg/mL; interferon-γ levels ([13]; Table 5 donor): 802 pg/mL; interferon-γ levels ([13]; Table 6 donor): 1005 pg/mL; interferon-γ levels ([14]; Table 5 donor): 2715 pg/mL; interferon-γ levels ([14]; Table 6 donor): 3460 pg/mL; interferon-γ levels ([15]; Table 5 donor): 19027 pg/mL; interferon-γ levels ([15]; Table 6 donor): 20027 pg/mL; proliferation ([3H]-thymidine incorporation) [16]: proliferate in response to co-culture with COS-A2-SSX-2 cells; interferon-γ levels ([17]; Table 5 donor): 327 pg/mL; interferon-γ levels ([17]; Table 6 donor): 554 pg/mL; interferon-γ levels ([18]; Table 5 donor): 56893 pg/mL; interferon-γ levels ([18]; Table 6 donor): 164314 pg/mL; interferon-γ levels ([19]; Table 5 donor): 1122 pg/mL; interferon-γ levels ([19]; Table 6 donor): 932 pg/mL; activation marker CD137 (4-1BB) [20]: upregulated; lytic activity (percent lysis) [21]: specific lytic activity against SSX-2^+/HLA-A2^+ target cells
B2	46304 pg/mL	51173 pg/mL	2338 pg/mL	601 pg/mL	8869 pg/mL	11445 pg/mL	21325 pg/mL	13610 pg/mL	proliferate in response to co-culture with SSX2+/HLA-A2+ target cells	37547 pg/mL	47059 pg/mL	30 pg/mL	30 pg/mL	37522 pg/mL	49112 pg/mL	2527 pg/mL	22509 pg/mL	1714 pg/mL	2784 pg/mL	193 pg/mL	interferon-γ levels ([12]; Table 6 donor): 120 pg/mL; interferon-γ levels ([13]; Table 5 donor): 711 pg/mL; interferon-γ levels ([13]; Table 6 donor): 1067 pg/mL; interferon-γ levels ([14]; Table 5 donor): 2596 pg/mL; interferon-γ levels ([14]; Table 6 donor): 3052 pg/mL; interferon-γ levels ([15]; Table 5 donor): 19223 pg/mL; interferon-γ levels ([15]; Table 6 donor): 21418 pg/mL; proliferation ([3H]-thymidine incorporation) [16]: proliferate in response to co-culture with COS-A2-SSX-2 cells; interferon-γ levels ([17]; Table 5 donor): 164 pg/mL; interferon-γ levels ([17]; Table 6 donor): 290 pg/mL; interferon-γ levels ([18]; Table 5 donor): 64142 pg/mL; interferon-γ levels ([18]; Table 6 donor): 138324 pg/mL; interferon-γ levels ([19]; Table 5 donor): 890 pg/mL; interferon-γ levels ([19]; Table 6 donor): 768 pg/mL; activation marker CD137 (4-1BB) [20]: upregulated; lytic activity (percent lysis) [21]: specific lytic activity against SSX-2^+/HLA-A2^+ target cells
